Data published in patent US20210403552A1 (SHANGHAI GENBASE BIOTECHNOLOGY, published 2021).
Changes are numbered by the printed parent chain.

T1: mouse CLDN18.2 (mouse, UniProt P56857 10-264)
T1 construct: over-expressed on HEK293T cells by lentivirus; also called mCLDN18.2; murine CLDN18.2
T1 chain: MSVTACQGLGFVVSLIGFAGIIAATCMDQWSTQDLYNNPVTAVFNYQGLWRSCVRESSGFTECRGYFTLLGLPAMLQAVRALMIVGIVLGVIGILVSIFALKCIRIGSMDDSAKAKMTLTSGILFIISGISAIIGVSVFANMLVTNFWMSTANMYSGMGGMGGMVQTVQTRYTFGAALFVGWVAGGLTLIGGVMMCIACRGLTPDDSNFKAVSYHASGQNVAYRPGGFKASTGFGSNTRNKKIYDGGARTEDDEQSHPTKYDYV

B1: 5F9-chIgG1 (antibody, V domains shown)
VH: QVQLQQSGAELVKPGASVKLSCKASGYTFTSYWMHWVKQRPGQGLEWIGMIHPNSVSTNYNEKFKSKATLTVDKSSSTAYMQLSSLTSEDSAVYYCAVYFDYWGQGTTLTVSS
VL: DIQVTQSPSSLSASLGERVSLTCRASQDIGSSLNWLQQEPDGTIKRLIYASSSLNSGVPKRFSVSRSGSDYSLTISSLESEDFVDYYCLQYATSPPTFGGGTKLEIKR
notes: human-mouse chimeric antibody, human IgG1/kappa constant regions
B2: 9F3-chIgG1 (antibody, V domains shown)
VH: EVRLQQSGPELVKPGASVKIPCKASGYKFTDYNMDWVKQSHGKSLEWIGEINPNNGGTIYNQKFKGKATLTVDKSSSTAYMELRSLTSEDTAVYYCARIYYGNSFAYWGQGTLVTVSS
VL: DIVMTQSPSSLTVTAGEKVTMSCKSSQSLLNSGNLKNYLTWYQQKPGQPPKLLIYWASTRESGVPDRFTGSGSGTDFTLTISSVQAEDLAVYYCQNDYFYPLTFGAGTKLEIKR
notes: as for B1
B3: 27B5-chIgG1 (antibody, V domains shown)
VH: QVQLQQPGTELVKPGASVKLSCKASGYTFTSYWMHWVKQRPGQGLEWIGNIHPSNGGSNHNEKFKSKATLTVDKSSSTAYMQLSSLTSEDSAVYYCAPIYYGNSLAYWGHGTLVTVSA
VL: B2 VL with I2V, L35Q, I54L, D97S, L102F, A106S
notes: as for B1
B4: 37B1-chIgG1 (antibody, V domains shown)
VH: EVRLQQSGPELVKPGASVKMSCKASGYSFTDYNMHWVKQSHGKSPEWVGYINPNKGGTGYNQKFKGKATLTVNKSSSTANMELRSLTSEDSAVYYCARIWYGNSFAYWGQGTLVTVSA
VL: B2 VL with I2V, L35Q, Y93F, L102F, A106S
notes: as for B1
B5: 10B11-chIgG1 (antibody, V domains shown)
VH: QVQMKESGAELVKPGASVKISCKASGYAFSTYWMDWVKQRPGKGLEWIGQIYPGNGDTNYNGKFKGKATLTADKSSSTADMQLSSLTSEDSAVYFCARLGYGNSFTYWGQGTLVTVSA
VL: B2 VL with V3Q, M4V, L35Q, S73F, D97A, L102F, A106S
notes: as for B1
B6: 44A8-chIgG1 (antibody, V domains shown)
VH: EVRLQQSGPELVKPGASVKMSCKASGYTFTDYNMHWVKQSHGKSLEWIGYINPKNGGIRYNQKFTGKATLTVNKSSSTAYMELRSLTSEDSAVYYCARGGYYGNTLDNWGQGTSVTVSS
VL: B2 VL with V13L, L35Q, R60S, V91I, D97A, L102W, A106G
notes: as for B1
B7: 1D10-chIgG1 (antibody, V domains shown)
VH: B1 VH with S7P, H52Y, V56G, T58I, S66N, Y95F, A97S
VL: B1 VL with V4G, S51T, N55D, T93S
B8: 2F12 (antibody, V domains shown)
VH: EVQLVESGGGLVKPGGSLKLSCAASGFTFSDYGIHWVRQAPEKGLEWVAYISSGSSTIYYADTVKGRFTISRDNAKNTLFLQMTSLRSEDTAIYYCAKWDRGNCFDYWGQGTTLTVSS
VL: DIVLTQSPSSLTVTAGEKVTMSCKSSQSLLNSGNQKKYLTWYQQKVGQPPKLLIYWASIRECGVPDRFTGSGSGTDFILTISSVQAEDLAVYYCQNAYSYPLTFGAGTKLELK
notes: murine monoclonal antibody purified from hybridoma culture supernatant
B9: 9F3 (antibody, V domains shown)
VH: B2 VH
VL: B8 VL with L4M, Q35L, K37N, V46P, I59T, C62S, I78T, A97D, S99F, L112I
notes: as for B8
B10: 10B11 (antibody, V domains shown)
VH: B5 VH
VL: DIQVTQSPSSLTVTAGEKVTMSCKSSQSLLNSGNQKNYLTWYQQKPGQPPKLLIYWASTRESGVPDRFTGSGFGTDFTLTISSVQAEDLAVYYCQNAYFYPFTFGSGTKLEIK
notes: as for B8
B11: 44A8 (antibody, V domains shown)
VH: B6 VH
VL: B10 VL with Q3V, V4M, V13L, R60S, F73S, V91I, F102W, S106G
notes: as for B8
B12: 27B5 (antibody, V domains shown)
VH: B3 VH
VL: B10 VL with I2V, Q3V, V4M, I54L, F73S, A97S
notes: as for B8
B13: 44F7 (antibody, V domains shown)
VH: QVQLQQSGAELVRPGASVKMSCKASGYTFTSYNMHWVKQAPRQGLEWIGTIYPGNGDTSYNQKFKGKATLTVDKSSSTAYMQLSSLTSEDSAVYFCARGGYYGNSLDYWGQGTTLTVSS
VL: B10 VL with V4M, F73S, F99Y
notes: as for B8
B14: 37B1 (antibody, V domains shown)
VH: B4 VH
VL: B10 VL with I2V, Q3V, V4M, F73S, Y93F, A97D
notes: as for B8

molecular target: human CLDN18.2 (human); assay: cell-based or functional assay

Binder	ADCC EC50, HEK293T-hCLDN18.2 target cells, human PBMC effectors [µg/mL]
B1	0.0197
B2	0.008
B3	0.0249
B4	0.0126
B5	0.001
B6	0.0156

molecular target: human CLDN18.2 (human); assay: cell-based or functional assay; remark: another data set of the same source

Binder	CDC EC50, HEK293T-hCLDN18.2 target cells, human serum [µg/mL]
B1	5.25
B2	1.86
B3	5.17
B4	1.93
B5	1.65
B6	2.4

molecular target: human CLDN18.2 (human); assay: cell-based or functional assay; remark: another data set of the same source

Binder	Internalization percentage (%), HEK293T-hCLDN18.2 cells, flow cytometry, 10 µg/mL antibody [%]
B1	9.3
B7	28.7
B3	-2.2
B4	-3.2
B6	2.5

molecular target: T2, human CLDN18.1 (human, UniProt P56856 1-261); assay: imaging cytometry, CHOS-hCLDN18.1 cells
T2 construct: over-expressed on HEK293T or CHOS cells by lentivirus; also called hCLDN18.1
T2 sequence (P56856 whole entry): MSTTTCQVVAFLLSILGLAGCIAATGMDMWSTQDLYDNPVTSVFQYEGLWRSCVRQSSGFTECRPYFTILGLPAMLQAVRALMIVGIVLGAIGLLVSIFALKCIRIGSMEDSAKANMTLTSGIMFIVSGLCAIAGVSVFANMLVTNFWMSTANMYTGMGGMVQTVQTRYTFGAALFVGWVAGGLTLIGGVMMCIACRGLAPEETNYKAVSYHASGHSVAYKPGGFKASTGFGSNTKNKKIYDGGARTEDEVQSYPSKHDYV
Text: (§1) HEK293T-hCLDN18.2 and OCUM-1-hCLDN18.2 expressing human CLDN18.2 (hCLDN18.2), or HEK293T-mCLDN18.2 expressing mouse CLDN18.2 (mCLDN18.2) and the corresponding negative control cell line HEK293T were used; or HEK293T-hCLDN18.1 and CHOS-hCLDN18.1 expressing human CLDN18.1 (hCLDN18.1) were used. DyLight488 goat anti-mouse IgG (Abcam, Catalog No. ab97015) or DyLight488 goat anti-human IgG (Abcam, Catalog No. ab97003) was used as secondary antibody. Binding curves were generated by using the following method.
(§2) 10,000 cells were plated in 100 μL of DMEM containing 10% FBS per well in a flat-bottomed 96-well plate. After the cells adhered or were settled to the bottom of the wells overnight, the supernatant was removed on the next day. 3-Fold gradient dilution of antibody was performed by diluting 1/3 of the total volume (i.e., 100 μL) in 200 μL of DMEM. 100 μL of the diluted antibody (the supernatants of fused clones or subclones was used in the screening) was added to each well of the cell plate, 100 μL of DMEM was added to the corresponding negative control well, and incubation was carried out for 1 hour at room temperature. After removing the supernatant, 100 μL of secondary antibody (5 μg/mL, diluted in DMEM) was added to each well, and incubated at room temperature for 0.5 hours. The supernatant was removed after staining, followed by washing with PBS once. 100 μL of PBS was added to each well, and then reading was carried out on the cytometer.
(§3) A full-field scanning cytometer (Nexcelom, Celigo® Image Cytometer) was used to measure the readings of the experimental plate. During the measurement, high-speed scanning imaging of the cells in the well was simultaneously performed in the green fluorescent channel corresponding to the secondary antibody and in the bright field channel. The cells that bound the antibody were counted in the image obtained from the green fluorescent channel under the parameters set in accordance with the morphology and fluorescence intensity of the fluorescently labeled cells, and the adhered cells were counted in the image obtained from the bright field channel under the parameters set in accordance with the morphology of the cells.

Binder	binding result
B8	no binding
B9	no binding
B10	no binding
B11	no binding
B12	no binding
B13	no binding
B14	no binding

molecular target: T3, human CLDN18.2 (human); assay: imaging cytometry (% fluorescent cells), OCUM1-hCLDN18.2 cells
T3 construct: over-expressed on HEK293T or OCUM-1 cells by lentivirus; KATO-III and NUGC4 gastric cancer cells express it naturally; also called hCLDN18.2; hCLDNA18.2
Text: as §1, §2, §3

Binder	EC50 [µg/mL]
B8	0.186
B9	0.15
B10	0.135
B11	0.097
B12	0.142
B13	0.092
B14	0.146

molecular target: T3, human CLDN18.2; assay: imaging cytometry (% fluorescent cells), HEK293-hCLDN18.2 cells
Text: as §1, §2, §3

Binder	EC50 [µg/mL]
B8	0.041
B9	0.053
B10	0.038
B11	0.034
B12	0.041
B13	0.028
B14	0.04

Molecular target: T1, mouse CLDN18.2
Assay: imaging cytometry (% fluorescent cells), HEK293-mCLDN18.2 cells
Text: as §1, §2, §3

Binder	EC50 [µg/mL]
B8	0.036
B9	0.043
B10	0.035
B11	0.026
B12	0.033
B13	0.026
B14	0.032

molecular target: T3, human CLDN18.2; assay: imaging cytometry (% fluorescent cells), HEK293T-hCLDN18.2 cells
Protocol: as §2
as §3, with “cells. […] The data analysis was performed using GraphPad.” for “cells.”

Binder	EC50 [µg/mL]
B1	0.283
B2	0.104
B3	0.108
B4	0.031
B5	0.03
B6	0.069
